In the supplement of paper PMC9112550, “Optimization of the antimicrobial peptide Bac7 by deep mutational scanning” (BMC Biology, 2022):

Tested on: Escherichia coli TOP10
Experiment: shrunken log2 fold change of peptide-encoding DNA abundance (4.5 h post-induction vs induction); higher = less antimicrobial activity (less host growth inhibition)
Details: time post-induction: 4.5 h; library: site-saturation at positions 5, 18, 19, 20
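Note: peptides expressed intracellularly from a pBAD plasmid library in pooled LB shake-flask culture, induced with 0.3% L-arabinose, DNA abundance read by NGS, three biological replicates, DESeq2 with apeglm shrinkage.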

Sequence | shrunken log2 fold change
RRIRGRPPRLPRPRPRPIRIPRP | 0.217
RRIRKRPPRLPRPRPRPGETPRP | 0.476
RRIRVRPPRLPRPRPRPRIDPRP | -0.216
RRIRLRPPRLPRPRPRPKEKPRP | -0.0145
RRIRGRPPRLPRPRPRPTQLPRP | 1.02
RRIRQRPPRLPRPRPRPYVFPRP | -0.648
RRIRARPPRLPRPRPRPNTHPRP | -0.309
RRIRFRPPRLPRPRPRPVEDPRP | -0.264
RRIRQRPPRLPRPRPRPIFSPRP | 0.0638
RRIRFRPPRLPRPRPRPNPSPRP | -0.125
RRIRLRPPRLPRPRPRPIRAPRP | 0.301
RRIRERPPRLPRPRPRPQKIPRP | -0.12
RRIRWRPPRLPRPRPRPFKHPRP | -0.405
RRIRVRPPRLPRPRPRPPLGPRP | 0.554
RRIRHRPPRLPRPRPRPIKMPRP | -0.0865
RRIRTRPPRLPRPRPRPAQPPRP | 0.00354
RRIRRRPPRLPRPRPRPCVTPRP | -0.0627
RRIRNRPPRLPRPRPRPAWRPRP | 0.526
RRIRMRPPRLPRPRPRPSCSPRP | -0.0918
RRIRTRPPRLPRPRPRPGTVPRP | 0.0209

Sequence | shrunken log2 fold change
RRIRQRPPRLPRPRPRPTWQPRP | 0.186
RRIRNRPPRLPRPRPRPVSAPRP | 0.219
RRIRVRPPRLPRPRPRPNCRPRP | -0.0746
RRIRSRPPRLPRPRPRPAIEPRP | 0.00515
RRIRVRPPRLPRPRPRPHIEPRP | -0.763
RRIRHRPPRLPRPRPRPLLHPRP | -0.238
RRIRWRPPRLPRPRPRPIFDPRP | 0.273
RRIRSRPPRLPRPRPRPTMTPRP | 0.391
RRIRFRPPRLPRPRPRPSPNPRP | -0.399
RRIRSRPPRLPRPRPRPRHNPRP | -0.324
RRIRQRPPRLPRPRPRPAHVPRP | -0.139
RRIRYRPPRLPRPRPRPPPHPRP | 0.737
RRIRYRPPRLPRPRPRPWPDPRP | -0.137
RRIRYRPPRLPRPRPRPGECPRP | -0.489
RRIRRRPPRLPRPRPRPPMKPRP | 0.522
RRIRSRPPRLPRPRPRPISRPRP | -0.416
RRIRGRPPRLPRPRPRPDNFPRP | 0.169
RRIRHRPPRLPRPRPRPGMTPRP | -0.039
RRIRWRPPRLPRPRPRPWPNPRP | 0.0899
RRIRHRPPRLPRPRPRPTDEPRP | -0.123

Sequence | shrunken log2 fold change
RRIRFRPPRLPRPRPRPEMTPRP | -0.328
RRIRHRPPRLPRPRPRPLWCPRP | -0.22
RRIRGRPPRLPRPRPRPIIIPRP | -0.167
RRIRTRPPRLPRPRPRPKMIPRP | 0.013
RRIRHRPPRLPRPRPRPKDDPRP | -0.152
RRIRCRPPRLPRPRPRPPMSPRP | -0.178
RRIRNRPPRLPRPRPRPLYSPRP | -0.761
RRIRVRPPRLPRPRPRPYVFPRP | -0.136
RRIRTRPPRLPRPRPRPSCKPRP | -0.885
RRIRNRPPRLPRPRPRPLHTPRP | 0.0669
RRIRARPPRLPRPRPRPPYFPRP | 0.314
RRIRYRPPRLPRPRPRPPNEPRP | -0.106
RRIRMRPPRLPRPRPRPEVCPRP | 0.0476
RRIRFRPPRLPRPRPRPERSPRP | 0.0713
RRIRGRPPRLPRPRPRPCPHPRP | 0.205
RRIRFRPPRLPRPRPRPTTMPRP | -0.0267
RRIRDRPPRLPRPRPRPCCPPRP | -0.449
RRIRGRPPRLPRPRPRPTGQPRP | 0.793
RRIRARPPRLPRPRPRPLVLPRP | 0.157
RRIRQRPPRLPRPRPRPFAIPRP | 0.00479
